The values below are quoted from earlier work in paper PMC3193156.

A word on the pKa: it is the negative logarithm of the acid dissociation constant.

The target of one series is Cys95 (UniProt position 95, GQSRFCIFSSS). The experiment in a line: NMR.
The next series concerns the target His80 (UniProt position 80, GNGLGHEFLND). The experiment in a line: NMR.
A further series relates to Cys117. The conditions noted are these: Resting state (free reduced enzyme).
The next series concerns His103. The following applies: Resting state (free reduced enzyme).

Consider “Methionine-R-sulfoxide reductase B1 (MsrB1, selenoprotein R), Cys95 form (Mus musculus; U95C)”, for which the pKa was 6.0 in the series with Cys95 and 5.7 in the series with His80.

On to “Methionine sulfoxide reductase B (MsrB domain of PilB) (Neisseria meningitidis)”, for which the pKa with Cys117 was 9.3; in the series on His103, 6.6.
